This is an account of results in article PMC5136324 (Molecular cancer therapeutics, 2016).

For this assay, the target named is AR ligand binding domain (residues 670-920), biotinylated, N-terminal (His)6-avidin tag (human, UniProt P10275 670-920, biotin (biotinylated form)). The assay can be described thus: FRET or BRET. In general terms: Bioluminescence resonance energy transfer reports proximity on the nanometre scale.

Ends that are not written are not given here. * marks the point of attachment. FITC = O=C1OC2(c3ccc(O)cc3Oc3cc(O)ccc32)c2ccc(NC(=S)*)cc21

As to {FITC}-MPQDLRSPARTPPSEEDSAEA [FITC-labelled SGTA peptide (FITC-MPQDLRSPARTPPSEEDSAEA)], the binding result was “binds”.
